Reference: PMC6277429

Legend:
Assay in all cases: EMSA
Conditions in all cases: 10 mM Tris pH 7.5, 100 mM KCl (Fig. 3 legend; not in Methods), 1 mM DTT, 2.5% glycerol, 20 mM MgCl2, 500 ng poly(dI-dC), 0.05% NP-40; 30 nM DNA; 10 min room …
[1] = molecular target: T1, MBP-NnaR (Mycobacterium smegmatis mc2 155) (UniProt A0QPK7)
T1 sequence: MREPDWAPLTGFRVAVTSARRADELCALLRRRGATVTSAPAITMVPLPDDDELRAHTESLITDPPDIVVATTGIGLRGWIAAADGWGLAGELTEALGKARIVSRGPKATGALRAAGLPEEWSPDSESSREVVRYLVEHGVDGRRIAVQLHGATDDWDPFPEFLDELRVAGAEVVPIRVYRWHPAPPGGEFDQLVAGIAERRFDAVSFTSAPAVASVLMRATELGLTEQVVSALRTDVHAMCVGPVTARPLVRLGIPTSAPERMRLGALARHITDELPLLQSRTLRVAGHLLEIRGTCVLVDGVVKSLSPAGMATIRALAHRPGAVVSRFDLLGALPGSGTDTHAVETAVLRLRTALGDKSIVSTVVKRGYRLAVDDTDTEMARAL

[2] = molecular target: T2, MBP-NnaR;His-GlnR (Mycobacterium smegmatis mc2 155;Mycobacterium smegmatis mc2 155) (UniProt A0QPK7+A0R4C4)
T2 sequence 1: T1 sequence
T2 sequence 2: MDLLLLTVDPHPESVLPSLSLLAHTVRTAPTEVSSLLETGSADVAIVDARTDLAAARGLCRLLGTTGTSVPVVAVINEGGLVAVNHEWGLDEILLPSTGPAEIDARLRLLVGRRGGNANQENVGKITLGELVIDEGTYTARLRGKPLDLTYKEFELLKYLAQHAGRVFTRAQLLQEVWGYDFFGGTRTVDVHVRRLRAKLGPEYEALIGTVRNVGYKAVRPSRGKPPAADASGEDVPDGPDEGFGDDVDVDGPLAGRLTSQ

[3] = molecular target: T3, His-GlnR (Mycobacterium smegmatis mc2 155) (UniProt A0R4C4)
T3 sequence: T2 sequence 2

With “GCAGCTTGGACCACCTATTTCCACGCCATGAACGACCTCGCCCGAAAATTGATGAGCGCGTTCGCCCTCGGGTTGAGGTTGCCCGCCGACTACTTCGTCGACACCATCGA (double strand) [msmeg_4008 promoter]” the binding [1] was “no binding”, the binding [2] was “binds” and the binding [3] was “no binding”.
With “ATCTGCATCATCTCGCGACTTTGGTCAGCTGTCGCCCTGGCGCGCCGAGGCACGGCAGGTTTCGCACGCCCAGGCATCTCACAGCCGACGCTGAGCTGATGTGCGCAGATGGCAACACCGATGCATAGGTCAAGTCGCCGAACCGCAATCTGGGCGCGACACGGTCTAGGGAACTGTCCATCGGGTCCATCGGAAGGTTGCACCCAATG (double strand) [msmeg_5360 promoter]” the binding [1] was “no binding”, the binding [2] was “binds” and the binding [3] was “no binding”.
In the case of “CGTGTGGCCCTTTCGTTCGATCCCGAGCACAGAGATTAACTGTACTGACCACGCAAGGCGAGACGTCGGCACTCGTGACGTCCTCACACGGTTTTCACAACGCACTCACAAGACATGTGAGCAGCACGTAGCGGACCCGGTACGCCTGGGCAATGGTGCGGCAACGGGGTTCTCCGACGCTGAACGCATG (double strand) [msmeg_5765 promoter]”, the binding [1] is reported as “binds” and the binding [3] is reported as “binds more weakly”.
In the case of “CATAGGGCGAGGCTAAGAACCCGATATTGCCGCGATGTCGCGCTGTGTGAAGCCCCCATCACGGTGTGCTCACGTCTTCGGCAACGCACATGTGAGGTCCCCGACCGGTGAGCTCTCCGGACCACAGTCAGGCCACAACCGCC (double strand) [msmeg_0427 promoter]”, the binding [1] is reported as “binds”.
For “GACCCCTGGTGACCGCGTAACGGCTTTCTCACAGGTGCCCGCCGATCCAGGTGAGCGGAATTTCACGGCCGGGTCATCGCGCGCAGTGTCGGGGCAATAATCGCTTTCTAGCGTGCTCGCATG (double strand) [msmeg_0433 promoter]”, the binding [1] was “binds” and the binding [3] was “binds more weakly”.
